Measurements from the RNAGym collection of RNA variant scans (doi:10.7554/elife.80360).

B1: Hairpin Ribozyme (parent)
chain: GUCCUCUUUCACGUGCGCGUGAAAGAGAGAAGUGAACCAGAGAAACACACGUUGUGGUAUAUUACCUGGUA

Variants of: B1
Test: self-cleavage, relative activity (ratio to wild type); higher = more cleavage; co-transcriptional

| Variant | self-cleavage |
| --- | --- |
| GUCCUCUUUCACGUGCGCGUGAAAGAGAGAAGUCAACCAGAGAAACACACGCUGUGGUAUAUUACCUGGUA [G34C U52C] | 1.6 |
| GUCCUCUUUCACGUGCGCGUGAAAGAGAGAAGUCAACCAGAGAAACACACGUUGUGGUAUAUCACCUGGUA [G34C U63C] | 0.506 |
| GUCCUCUUUCACGUGCGCGUGAAAGAGAGAAGUUAACCAGAGAAACACACGUUGAGGUAUAUUACCUGGUA [G34U U55A] | 1.48 |
| GUCCUCUUUCACGUGCGCGUGAAAGAGAGAAGUUAACCAGAGAAACACACGUUGGGGUAUAUUACCUGGUA [G34U U55G] | 1.27 |
| GUCCUCUUUCACGUGCGCGUGAAAGAGAGAAGUCAACCAGAGAAACACACGUUGUGGUGUAUUACCUGGUA [G34C A59G] | 0.174 |
| GUCCUCUUUCACGUGCGCGUGAAAGAGAGAAGUGCACCAGAGGAACACACGUUGUGGUAUAUUACCUGGUA [A35C A43G] | 0.155 |
| GUCCUCUUUCACGUGCGCGUGAAAGAGAGAAGUGCACCAGAGUAACACACGUUGUGGUAUAUUACCUGGUA [A35C A43U] | 0.194 |
| GUCCUCUUUCACGUGCGCGUGAAAGAGAGAAGUUAACCAGAGAAACACACGUUGUGGUAUAUUACCUUGUA [G34U G68U] | 0.95 |
| GUCCUCUUUCACGUGCGCGUGAAAGAGAGAAGUUAACCAGAGAAACACACGUUGUGGUAUAUUACCUCGUA [G34U G68C] | 0.686 |
| GUCCUCUUUCACGUGCGCGUGAAAGAGAGAAGUUAACCAGAGAAACACACGUUGUGGUAUAUUAGCUGGUA [G34U C65G] | 1.35 |
| GUCCUCUUUCACGUGCGCGUGAAAGAGAGAAGUGCCCCAGAGAAACACACGUUGUGGUAUAUUACCUGGUA [A35C A36C] | 0.517 |
| GUCCUCUUUCACGUGCGCGUGAAAGAGAGAAGUCAACCAGAGAAACACACGUUGUGGUAUAUUACCUGAUA [G34C G69A] | 0.896 |
| GUCCUCUUUCACGUGCGCGUGAAAGAGAGAAGUGCACCAGAGAAACACCCGUUGUGGUAUAUUACCUGGUA [A35C A49C] | 0.147 |
| GUCCUCUUUCACGUGCGCGUGAAAGAGAGAAGUGCACCAGAGAAACACGCGUUGUGGUAUAUUACCUGGUA [A35C A49G] | 0.341 |
| GUCCUCUUUCACGUGCGCGUGAAAGAGAGAAGUGCACCAGAGAAACUCACGUUGUGGUAUAUUACCUGGUA [A35C A47U] | 0.179 |
| GUCCUCUUUCACGUGCGCGUGAAAGAGAGAAGUGCACCAGAGAAACGCACGUUGUGGUAUAUUACCUGGUA [A35C A47G] | 0.195 |
| GUCCUCUUUCACGUGCGCGUGAAAGAGAGAAGUGCACCAGAGAAACACACGUUGUGGUAUUUUACCUGGUA [A35C A61U] | 0.125 |
| GUCCUCUUUCACGUGCGCGUGAAAGAGAGAAGUUAACCAGAGAAACACACAUUGUGGUAUAUUACCUGGUA [G34U G51A] | 1.57 |
| GUCCUCUUUCACGUGCGCGUGAAAGAGAGAAGUCAACCAGAGAAACACACGUUGUGGUAUAUUACCUUGUA [G34C G68U] | 0.658 |
| GUCCUCUUUCACGUGCGCGUGAAAGAGAGAAGUCAACCAGAGACACACACGUUGUGGUAUAUUACCUGGUA [G34C A44C] | 0.116 |
| GUCCUCUUUCACGUGCGCGUGAAAGAGAGAAGUUAAACAGAGAAACACACGUUGUGGUAUAUUACCUGGUA [G34U C37A] | 0.946 |
| GUCCUCUUUCACGUGCGCGUGAAAGAGAGAAGUUAGCCAGAGAAACACACGUUGUGGUAUAUUACCUGGUA [G34U A36G] | 0.909 |
| GUCCUCUUUCACGUGCGCGUGAAAGAGAGAAGUUACCCAGAGAAACACACGUUGUGGUAUAUUACCUGGUA [G34U A36C] | 1.02 |
| GUCCUCUUUCACGUGCGCGUGAAAGAGAGAAGUCAACCAGAGCAACACACGUUGUGGUAUAUUACCUGGUA [G34C A43C] | 0.144 |
| GUCCUCUUUCACGUGCGCGUGAAAGAGAGAAGUCAACCAGAGUAACACACGUUGUGGUAUAUUACCUGGUA [G34C A43U] | 0.233 |
| GUCCUCUUUCACGUGCGCGUGAAAGAGAGAAGUGCACGAGAGAAACACACGUUGUGGUAUAUUACCUGGUA [A35C C38G] | 0.112 |

| Variant | self-cleavage |
| --- | --- |
| GUCCUCUUUCACGUGCGCGUGAAAGAGAGAAGUGCACUAGAGAAACACACGUUGUGGUAUAUUACCUGGUA [A35C C38U] | 0.312 |
| GUCCUCUUUCACGUGCGCGUGAAAGAGAGAAGUGCACCAGAGAAACACACGUUGUGGUAUAUUACCUGGUU [A35C A71U] | 0.668 |
| GUCCUCUUUCACGUGCGCGUGAAAGAGAGAAGUCAACCAGUGAAACACACGUUGUGGUAUAUUACCUGGUA [G34C A41U] | 1.42 |
| GUCCUCUUUCACGUGCGCGUGAAAGAGAGAAGUUAACCCGAGAAACACACGUUGUGGUAUAUUACCUGGUA [G34U A39C] | 0.857 |
| GUCCUCUUUCACGUGCGCGUGAAAGAGAGAAGUGCAACAGAGAAACACACGUUGUGGUAUAUUACCUGGUA [A35C C37A] | 0.269 |
| GUCCUCUUUCACGUGCGCGUGAAAGAGAGAAGUGCAUCAGAGAAACACACGUUGUGGUAUAUUACCUGGUA [A35C C37U] | 0.486 |
| GUCCUCUUUCACGUGCGCGUGAAAGAGAGAAGUCAACCAGAGAAACACACGUUGUGGUAUACUACCUGGUA [G34C U62C] | 1.1 |
| GUCCUCUUUCACGUGCGCGUGAAAGAGAGAAGUUAACCAGAGAAACACACGUUGUGGUUUAUUACCUGGUA [G34U A59U] | 0.192 |
| GUCCUCUUUCACGUGCGCGUGAAAGAGAGAAGUUAACCAGAGAAACACACGUUGUGGUGUAUUACCUGGUA [G34U A59G] | 0.23 |
| GUCCUCUUUCACGUGCGCGUGAAAGAGAGAAGUCAACCAGAGAAACACACGUUGUGGCAUAUUACCUGGUA [G34C U58C] | 1.4 |
| GUCCUCUUUCACGUGCGCGUGAAAGAGAGAAGUCAACCAGAGAAACACACGUUGUGGUAUAUUACCUGGGA [G34C U70G] | 1.23 |
| GUCCUCUUUCACGUGCGCGUGAAAGAGAGAAGUCAACCAGAGAAACACACGUUGUGGUAUAUUACCUGGAA [G34C U70A] | 1.12 |
| GUCCUCUUUCACGUGCGCGUGAAAGAGAGAAGUCAACCAGAGAAACACACGUUGUGGUAUAUUACCAGGUA [G34C U67A] | 0.451 |
| GUCCUCUUUCACGUGCGCGUGAAAGAGAGAAGUUAACCAGAGAAACACACGUUGUGGUAUACUACCUGGUA [G34U U62C] | 1.23 |
| GUCCUCUUUCACGUGCGCGUGAAAGAGAGAAGUUAACCAGAGAAACACACGUUGUGGUAUAUUACCUGGUA [G34U] | 1.42 |
| GUCCUCUUUCACGUGCGCGUGAAAGAGAGAAGUGCACCAGCGAAACACACGUUGUGGUAUAUUACCUGGUA [A35C A41C] | 1.13 |
| GUCCUCUUUCACGUGCGCGUGAAAGAGAGAAGUGCACCAGGGAAACACACGUUGUGGUAUAUUACCUGGUA [A35C A41G] | 0.907 |
| GUCCUCUUUCACGUGCGCGUGAAAGAGAGAAGUUAACCAGAGAAACACAAGUUGUGGUAUAUUACCUGGUA [G34U C50A] | 1.13 |
| GUCCUCUUUCACGUGCGCGUGAAAGAGAGAAGUUAACCAGAGAAACACACGCUGUGGUAUAUUACCUGGUA [G34U U52C] | 0.926 |
| GUCCUCUUUCACGUGCGCGUGAAAGAGAGAAGUUAACCAGAGAAACACACGGUGUGGUAUAUUACCUGGUA [G34U U52G] | 0.896 |
| GUCCUCUUUCACGUGCGCGUGAAAGAGAGAAGUUAACCAGAGAAACGCACGUUGUGGUAUAUUACCUGGUA [G34U A47G] | 0.444 |
| GUCCUCUUUCACGUGCGCGUGAAAGAGAGAAGUUAACCAGAGAAACUCACGUUGUGGUAUAUUACCUGGUA [G34U A47U] | 0.876 |
| GUCCUCUUUCACGUGCGCGUGAAAGAGAGAAGUUAACCAGAGAAACACACGUUGUUGUAUAUUACCUGGUA [G34U G56U] | 0.225 |
| GUCCUCUUUCACGUGCGCGUGAAAGAGAGAAGUCAACCAGAGAAUCACACGUUGUGGUAUAUUACCUGGUA [G34C A45U] | 0.33 |
| GUCCUCUUUCACGUGCGCGUGAAAGAGAGAAGUCAACCAGAGAAACACACGUUCUGGUAUAUUACCUGGUA [G34C G54C] | 0.735 |
| GUCCUCUUUCACGUGCGCGUGAAAGAGAGAAGUUAACCAGACAAACACACGUUGUGGUAUAUUACCUGGUA [G34U G42C] | 1.17 |

| Variant | self-cleavage |
| --- | --- |
| GUCCUCUUUCACGUGCGCGUGAAAGAGAGAAGUCAACCAGAGAAACACACGUUGUGGUAUAUUACCUGGUU [G34C A71U] | 1.27 |
| GUCCUCUUUCACGUGCGCGUGAAAGAGAGAAGUCAACCAAAGAAACACACGUUGUGGUAUAUUACCUGGUA [G34C G40A] | 0.576 |
| GUCCUCUUUCACGUGCGCGUGAAAGAGAGAAGUUAACCAGAGAAACACACGUUGUGGUAUAUUACCGGGUA [G34U U67G] | 0.658 |
| GUCCUCUUUCACGUGCGCGUGAAAGAGAGAAGUUAACCACAGAAACACACGUUGUGGUAUAUUACCUGGUA [G34U G40C] | 0.232 |
| GUCCUCUUUCACGUGCGCGUGAAAGAGAGAAGUUAACCAAAGAAACACACGUUGUGGUAUAUUACCUGGUA [G34U G40A] | 0.751 |
| GUCCUCUUUCACGUGCGCGUGAAAGAGAGAAGUCAACCAGAGAAACACACGUUGUGGUAUUUUACCUGGUA [G34C A61U] | 1.24 |
| GUCCUCUUUCACGUGCGCGUGAAAGAGAGAAGUUAACCAGAGAAAAACACGUUGUGGUAUAUUACCUGGUA [G34U C46A] | 0.239 |
| GUCCUCUUUCACGUGCGCGUGAAAGAGAGAAGUUAACCAGAGAAACACACGUUGUGGUAAAUUACCUGGUA [G34U U60A] | 1.52 |
| GUCCUCUUUCACGUGCGCGUGAAAGAGAGAAGUUAACCAGAGAAACACACGUUGUGGGAUAUUACCUGGUA [G34U U58G] | 1.25 |
| GUCCUCUUUCACGUGCGCGUGAAAGAGAGAAGUUAACCAGAGAAACACACGUUGUGGCAUAUUACCUGGUA [G34U U58C] | 1.53 |
| GUCCUCUUUCACGUGCGCGUGAAAGAGAGAAGUCAACCAGAGAAACACACUUUGUGGUAUAUUACCUGGUA [G34C G51U] | 1.4 |
| GUCCUCUUUCACGUGCGCGUGAAAGAGAGAAGUCAAUCAGAGAAACACACGUUGUGGUAUAUUACCUGGUA [G34C C37U] | 1.34 |
| GUCCUCUUUCACGUGCGCGUGAAAGAGAGAAGUCAACGAGAGAAACACACGUUGUGGUAUAUUACCUGGUA [G34C C38G] | 0.683 |
| GUCCUCUUUCACGUGCGCGUGAAAGAGAGAAGUCAACAAGAGAAACACACGUUGUGGUAUAUUACCUGGUA [G34C C38A] | 0.563 |
| GUCCUCUUUCACGUGCGCGUGAAAGAGAGAAGUCAACUAGAGAAACACACGUUGUGGUAUAUUACCUGGUA [G34C C38U] | 1.28 |
| GUCCUCUUUCACGUGCGCGUGAAAGAGAGAAGUCAACCAGAGAAACACACGUUGUGGUAUAUUCCCUGGUA [G34C A64C] | 0.578 |
| GUCCUCUUUCACGUGCGCGUGAAAGAGAGAAGUGCACCUGAGAAACACACGUUGUGGUAUAUUACCUGGUA [A35C A39U] | 0.445 |
| GUCCUCUUUCACGUGCGCGUGAAAGAGAGAAGUUAACCAGAGAAUCACACGUUGUGGUAUAUUACCUGGUA [G34U A45U] | 0.351 |
| GUCCUCUUUCACGUGCGCGUGAAAGAGAGAAGUUAACCAGAGAAACACACGUUGUGGUAUAUUACCUGGCA [G34U U70C] | 1.43 |
| GUCCUCUUUCACGUGCGCGUGAAAGAGAGAAGUUAACCAGAGAAACACACGUUGUGGUAUAUUACCUGGAA [G34U U70A] | 1.43 |
| GUCCUCUUUCACGUGCGCGUGAAAGAGAGAAGUUAACCAGAGAAACACACGUUGUGGUAUAUAACCUGGUA [G34U U63A] | 0.243 |
| GUCCUCUUUCACGUGCGCGUGAAAGAGAGAAGUCAACCAGAGAAACGCACGUUGUGGUAUAUUACCUGGUA [G34C A47G] | 0.448 |
| GUCCUCUUUCACGUGCGCGUGAAAGAGAGAAGUCAACCAGAGAAACUCACGUUGUGGUAUAUUACCUGGUA [G34C A47U] | 0.465 |
| GUCCUCUUUCACGUGCGCGUGAAAGAGAGAAGUGCACCAGAGAACCACACGUUGUGGUAUAUUACCUGGUA [A35C A45C] | 0.16 |
